# Like-named read-outs stand apart in the source and are kept apart here.
# What was measured:
# [1] = target: HLA-A*0201 heavy chain with β2-microglobulin; assay: differential scanning fluorimetry
# [2] = target: HLA-DR1 (DRA*0101/DRB*010101), soluble extracellular domains (human)
# [3] = target: HLA-DR1 (DRA*0101/DRB*010101), soluble extracellular domains (human); remark: listed apart in the source
# [4] = target: HLA-A*0201 heavy chain with β2-microglobulin; assay: circular dichroism
# [5] = target: HLA-DR1 (DRA*0101/DRB*010101), soluble extracellular domains (human); assay: differential scanning fluorimetry
apparent Tm by DSF [1],apparent Tm by CD [4],Molecule,other results
67.3 °C,,tyrosinase peptide (TYR),
,,influenza HA peptide,apparent Tm by DSF [2]: 82.1 °C; apparent Tm by DSF [3]: 83 °C
65.1 °C,63 °C,"LLYGFVNYV [HUD_(87(2L,9V)-95) peptide]",
44.8 °C,,LGYGFVNYI [HUD peptide],
59.2 °C,51 °C,ALGIGILTV [MART-1_(27(2L)-35) peptide],"half-life of the complex (slowest phase, peptide dissociation) [1]: 6.9 h"
,,YRAL [Min4 peptide],other [5]: 67.8 °C
61.4 °C,63 °C,YMDGFMSQV [TYR (T5F) peptide],
62.2 °C,,IMDQVPFSV [gp100_(209(2M)-217) peptide],

Molecule,apparent Tm by DSF [1],apparent Tm by CD [4],other results
NS3_(1406(7N)-1415) peptide,55.8 °C,,
SL9 peptide,59 °C,,
